The text below walks through data of PMC7139925, “Tuning the Polymorphism of the Anti-VEGF G-rich V7t1 Aptamer by Covalent Dimeric Constructs”.

This data set concerns the target VEGF165 (UniProt P15692-4 27-191). In words: EMSA; annealed; HEPES/Na+; 1:1.3; almost fully bound; 25 mM HEPES, 150 mM NaCl, pH 7.4; 30 pmol oligo + 40 pmol protein in 9 uL, 30 min at 4 C; 7% native PAGE in TAE 1X pH 7.8 at r.t. To be noted: protein: recombinant; chain copies: 2; G4; 2 copies of strand covalently linked 3'-3'.

VEGF165, sequence (P15692 other isoform, or with tags, fused parts or gaps): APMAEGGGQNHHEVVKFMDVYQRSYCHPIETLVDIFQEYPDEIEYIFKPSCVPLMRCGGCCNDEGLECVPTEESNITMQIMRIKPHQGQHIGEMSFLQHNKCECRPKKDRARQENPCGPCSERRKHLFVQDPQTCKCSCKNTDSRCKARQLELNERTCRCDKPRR

B1: bisV7t1TEG2D (structured_DNA)
DNA: TGTGGGGGTGGACGGGCCGGGTAGA
modifications: two V7t1 copies joined 3' to 3' by TEG/symmetric doubler linker (C25H53N2O24P5), inverted polarity
Turning to B1, the binding result is “binds”.
